Measurements reported in doi:10.1101/2021.05.24.445441 (bioRxiv, 2021).
No end group written: not given here.

What was measured:
p75-TM-C257A (human) = assay: NMR cross-correlated relaxation rates
NMR titration = molecular target: the molecule itself; assay: NMR titration

Molecule	stoichiometry N (p75-TM-C257A (human))	binding result (NMR titration)
p75-TM-C257A (domain or fragment)	2	
MKKDETPFGVSVAVGLAVFACLFLSTLLLVLNKAGRRNK (domain or fragment, also: 15N-labelled in one titration, unlabelled in the other) [human TrkA-TM]		binds
